Results taken from patent publication US20020127645A1.

Target: dimeric mouse-human chimeric IgA1 specific for the hapten dansyl (human) (UniProt P01876)
Experiment: densitometry of secreted proteins after immunoprecipitation and SDS-PAGE

UniProt P01876, sequence (P01876 other isoform, or with tags, fused parts or gaps mutant, chain 1 of 2, other chains not shown): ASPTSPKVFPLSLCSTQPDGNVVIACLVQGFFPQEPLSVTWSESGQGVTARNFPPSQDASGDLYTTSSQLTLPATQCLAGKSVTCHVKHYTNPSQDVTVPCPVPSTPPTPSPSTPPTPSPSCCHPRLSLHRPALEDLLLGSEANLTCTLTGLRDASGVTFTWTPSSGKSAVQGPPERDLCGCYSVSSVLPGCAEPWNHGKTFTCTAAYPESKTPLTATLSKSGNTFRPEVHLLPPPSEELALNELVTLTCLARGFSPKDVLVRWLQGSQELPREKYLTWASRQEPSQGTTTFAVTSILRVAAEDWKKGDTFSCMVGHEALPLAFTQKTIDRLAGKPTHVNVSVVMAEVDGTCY

α chains per molecule of SC (stoichiometry) (α chains per SC): 4
Substance: human secretory component (SC), ectoplasmic domain of the human polymeric Ig receptor (pIgR) ending at Glu589 (from UniProt P01833 19-607)
